Reference: patent US20080152587A1

biological target: mouse uPAR on the surface of NCTC L929 cells (mouse) (UniProt P35456); test: FACS, NCTC L929 mouse cells, secondary alone
Sequence (P35456 24-298): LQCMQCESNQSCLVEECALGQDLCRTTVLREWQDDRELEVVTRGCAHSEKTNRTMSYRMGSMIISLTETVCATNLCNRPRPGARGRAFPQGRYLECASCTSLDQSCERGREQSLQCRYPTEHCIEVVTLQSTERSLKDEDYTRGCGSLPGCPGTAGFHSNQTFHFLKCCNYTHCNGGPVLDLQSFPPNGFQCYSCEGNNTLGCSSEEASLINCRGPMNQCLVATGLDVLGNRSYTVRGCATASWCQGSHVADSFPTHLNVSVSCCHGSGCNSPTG

| X Geo mean | Substance |
| --- | --- |
| 13.1 | secondary antibody alone for rat antibodies |
| 7.63 | secondary antibody alone, Cy5-labeled goat anti-human IgG Fc |
| 3.22 | secondary antibody alone for mouse antibodies |
